Reference: PMC4654935

How the values were obtained:
[1] = target: Rab8A S111A (recombinant) (human) (UniProt P61006)
[2] = target: Rab8A S111E (recombinant) (human) (UniProt P61006)
[3] = target: Rab8A wild-type (recombinant) (human) (UniProt P61006)

- k cat/K M of Rabin8-catalysed mantGDP release from Rab8A (1 uM Rab, 100 uM GDP, 0.5 uM Rabin8, 25°C) [1]: 87000 M⁻¹ s⁻¹
- k cat/K M of Rabin8-catalysed mantGDP release from Rab8A (1 uM Rab, 100 uM GDP, 0.5 uM Rabin8, 25°C) [2]: 7600 M⁻¹ s⁻¹
- k cat/K M of Rabin8-catalysed mantGDP release from Rab8A (1 uM Rab, 100 uM GDP, 0.5 uM Rabin8, 25°C) [3]: 100000 M⁻¹ s⁻¹
B1: Rabin8(153-237) (domain or fragment)
chain: VREKGYERLKEELAKAQRELKLKDEECERLSKVRDQLGQELEELTASLFEEAHKMVREANIKQATAEKQLKEAQGKIDVLQAEVA
